Results as given in publication PMC5413349.

Tests used:
[1] = biological target: native dynactin complex purified from pig brain (pig (purified from pig brain))
[2] = biological target: microtubules polymerised from porcine tubulin (porcine); assay: single-molecule TIRF microscopy of binding to microtubules; dynein (100 nM in the assembly mix, 1 in 20 dilution) alone or with a 20x or 300x molar excess of LIS1 on immobilised taxol/GMPCPP-stabilised microtubules, without EB1 and dynactin; 2.5 mM ATP
[3] = biological target: human cytoplasmic dynein-1 complex (recombinant, SNAPf tag on the heavy chain) (human) (UniProt Q14204)
[4] = biological target: human cytoplasmic dynein-1 complex (recombinant, SNAPf tag on the heavy chain) (human) (UniProt Q14204); assay: single-molecule TIRF co-localisation on microtubules; Alexa647-BICD2N (10x) and TMR-dynein (20 nM in the assembly mix, 1 in 2 dilution) with EB1, dynactin (2x) and LIS1 (20x) on dynamic microtubules

Chain of SNAPf::BICD2N (residues 1-400 of mouse Bicaudal-D2 with an N-terminal SNAPf tag) (Q921C5 1-400): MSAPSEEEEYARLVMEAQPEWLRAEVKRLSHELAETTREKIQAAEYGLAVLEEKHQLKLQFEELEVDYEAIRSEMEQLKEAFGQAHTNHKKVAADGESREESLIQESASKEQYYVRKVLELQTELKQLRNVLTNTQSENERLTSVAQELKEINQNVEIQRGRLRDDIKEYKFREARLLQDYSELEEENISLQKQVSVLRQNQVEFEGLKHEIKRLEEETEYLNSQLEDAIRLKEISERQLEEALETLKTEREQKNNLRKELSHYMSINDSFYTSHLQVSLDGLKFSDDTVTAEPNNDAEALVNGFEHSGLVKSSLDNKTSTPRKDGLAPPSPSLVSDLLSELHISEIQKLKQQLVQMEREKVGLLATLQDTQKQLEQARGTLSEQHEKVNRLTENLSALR

Substance	plus-end tracking of Alexa647-dynein on growing microtubules with EB1 and dynactin (TIRF): maximal duration of tracking events [1]	plus-end tracking of Alexa647-dynein on growing microtubules with EB1 and dynactin (TIRF): mean duration of tracking events [1]	fold increase of the landing rate on the lattice with a 300-fold molar excess of LIS1 against no LIS1 [2]	proportion of microtubule-associated dynein complexes in minus end-directed motion with dynactin and BICD2N, without (45%) and with LIS1 (70%) [3]	percent of plus-end tracking events of TMR-dynein with Alexa647-BICD2N signal [4]
human cytoplasmic dynein-1 complex (recombinant, SNAPf tag on the heavy chain) (from UniProt Q14204 1-4646; O43237-1 1-492; P63172 1-113; P63167 1-89; Q9NP97-1 1-96)	9 s	4 s	3 fold	–	–
SNAPf::BICD2N (residues 1-400 of mouse Bicaudal-D2 with an N-terminal SNAPf tag) (from UniProt Q921C5 1-400) (domain or fragment)	–	–	–	70%	40%
